Measured values as given in US20160120951A1 (ZEALAND PHARMA A S, published 2016).
Numbered stars: 1 amine (or outer) side, 2 acyl side, 3 side chain; on linkers, the order of the positions; unused ones are H or OH. Square brackets hold non-standard residues; d marks the D form. Side chains are listed from the residue outwards. Ends that are not written are not given here. * marks the point of attachment. isoGlu = used interchangeably with γ-Glu; γGlu = O=C(O)[C@H](CCC(=O)[*:2])N[*:1]; Palmitoyl = CCCCCCCCCCCCCCCC(=O)*; Aib = CC(C)(N)C(=O)O

B1: Compound 10 (peptide)
peptide: H-H[Aib]QGTFTSDYSKYLDSKAAK([γGlu-Palmitoyl])DFVAWLLRA-NH2
SMILES: CCCCCCCCCCCCCCCC(=O)N[C@@H](CCC(=O)NCCCC[C@H](NC(=O)[C@H](C)NC(=O)[C@H](C)NC(=O)[C@H](CCCCN)NC(=O)[C@H](CO)NC(=O)[C@H](CC(=O)O)NC(=O)[C@H](CC(C)C)NC(=O)[C@H](Cc1ccc(O)cc1)NC(=O)[C@H](CCCCN)NC(=O)[C@H](CO)NC(=O)[C@H](Cc1ccc(O)cc1)NC(=O)[C@H](CC(=O)O)NC(=O)[C@H](CO)NC(=O)[C@@H](NC(=O)[C@H](Cc1ccccc1)NC(=O)[C@@H](NC(=O)CNC(=O)[C@H](CCC(N)=O)NC(=O)C(C)(C)NC(=O)[C@@H](N)Cc1c[nH]cn1)[C@@H](C)O)[C@@H](C)O)C(=O)N[C@@H](CC(=O)O)C(=O)N[C@@H](Cc1ccccc1)C(=O)N[C@H](C(=O)N[C@@H](C)C(=O)N[C@@H](Cc1c[nH]c2ccccc12)C(=O)N[C@@H](CC(C)C)C(=O)N[C@@H](CC(C)C)C(=O)N[C@@H](CCCNC(=N)N)C(=O)N[C@@H](C)C(N)=O)C(C)C)C(=O)O
B2: Compound 9 (peptide)
peptide: H-H[Aib]QGTFTSDYSKYLDSK([γGlu-Palmitoyl])AARDFVAWLLRA-NH2
SMILES: CCCCCCCCCCCCCCCC(=O)N[C@@H](CCC(=O)NCCCC[C@H](NC(=O)[C@H](CO)NC(=O)[C@H](CC(=O)O)NC(=O)[C@H](CC(C)C)NC(=O)[C@H](Cc1ccc(O)cc1)NC(=O)[C@H](CCCCN)NC(=O)[C@H](CO)NC(=O)[C@H](Cc1ccc(O)cc1)NC(=O)[C@H](CC(=O)O)NC(=O)[C@H](CO)NC(=O)[C@@H](NC(=O)[C@H](Cc1ccccc1)NC(=O)[C@@H](NC(=O)CNC(=O)[C@H](CCC(N)=O)NC(=O)C(C)(C)NC(=O)[C@@H](N)Cc1c[nH]cn1)[C@@H](C)O)[C@@H](C)O)C(=O)N[C@@H](C)C(=O)N[C@@H](C)C(=O)N[C@@H](CCCNC(=N)N)C(=O)N[C@@H](CC(=O)O)C(=O)N[C@@H](Cc1ccccc1)C(=O)N[C@H](C(=O)N[C@@H](C)C(=O)N[C@@H](Cc1c[nH]c2ccccc12)C(=O)N[C@@H](CC(C)C)C(=O)N[C@@H](CC(C)C)C(=O)N[C@@H](CCCNC(=N)N)C(=O)N[C@@H](C)C(N)=O)C(C)C)C(=O)O
B3: Compound 5 (peptide)
peptide: H-HSQGTFTSDYSKYLDSKAAHDFVEWLK([γGlu-Palmitoyl])RA-NH2
SMILES: CCCCCCCCCCCCCCCC(=O)N[C@@H](CCC(=O)NCCCC[C@H](NC(=O)[C@H](CC(C)C)NC(=O)[C@H](Cc1c[nH]c2ccccc12)NC(=O)[C@H](CCC(=O)O)NC(=O)[C@@H](NC(=O)[C@H](Cc1ccccc1)NC(=O)[C@H](CC(=O)O)NC(=O)[C@H](Cc1c[nH]cn1)NC(=O)[C@H](C)NC(=O)[C@H](C)NC(=O)[C@H](CCCCN)NC(=O)[C@H](CO)NC(=O)[C@H](CC(=O)O)NC(=O)[C@H](CC(C)C)NC(=O)[C@H](Cc1ccc(O)cc1)NC(=O)[C@H](CCCCN)NC(=O)[C@H](CO)NC(=O)[C@H](Cc1ccc(O)cc1)NC(=O)[C@H](CC(=O)O)NC(=O)[C@H](CO)NC(=O)[C@@H](NC(=O)[C@H](Cc1ccccc1)NC(=O)[C@@H](NC(=O)CNC(=O)[C@H](CCC(N)=O)NC(=O)[C@H](CO)NC(=O)[C@@H](N)Cc1c[nH]cn1)[C@@H](C)O)[C@@H](C)O)C(C)C)C(=O)N[C@@H](CCCNC(=N)N)C(=O)N[C@@H](C)C(N)=O)C(=O)O
B4: Compound 7 (peptide)
peptide: HXQGTFTSDYSKYLDSKAAHDFVEWLLSA
modifications: Aib at position 2; K(Hexadecanoyl-γ-Glu) at position 17; C-terminal amide (NH2)
B5: Compound 6 (peptide)
peptide: H-HSQGTFTSDYSKYLDSKAAHDFVEWLLK([γGlu-Palmitoyl])A-NH2
SMILES: CCCCCCCCCCCCCCCC(=O)N[C@@H](CCC(=O)NCCCC[C@H](NC(=O)[C@H](CC(C)C)NC(=O)[C@H](CC(C)C)NC(=O)[C@H](Cc1c[nH]c2ccccc12)NC(=O)[C@H](CCC(=O)O)NC(=O)[C@@H](NC(=O)[C@H](Cc1ccccc1)NC(=O)[C@H](CC(=O)O)NC(=O)[C@H](Cc1c[nH]cn1)NC(=O)[C@H](C)NC(=O)[C@H](C)NC(=O)[C@H](CCCCN)NC(=O)[C@H](CO)NC(=O)[C@H](CC(=O)O)NC(=O)[C@H](CC(C)C)NC(=O)[C@H](Cc1ccc(O)cc1)NC(=O)[C@H](CCCCN)NC(=O)[C@H](CO)NC(=O)[C@H](Cc1ccc(O)cc1)NC(=O)[C@H](CC(=O)O)NC(=O)[C@H](CO)NC(=O)[C@@H](NC(=O)[C@H](Cc1ccccc1)NC(=O)[C@@H](NC(=O)CNC(=O)[C@H](CCC(N)=O)NC(=O)[C@H](CO)NC(=O)[C@@H](N)Cc1c[nH]cn1)[C@@H](C)O)[C@@H](C)O)C(C)C)C(=O)N[C@@H](C)C(N)=O)C(=O)O
B6: Compound 43 (peptide)
peptide: H-H[Aib]QGTFTSDYSKYLDSK([isoGlu-Palmitoyl])AAHDFVEWLLEA-NH2
B7: Compound 39 (peptide)
peptide: H-H[Aib]QGTFTSDYSKYLDSK([isoGlu-Palmitoyl])AAKDFVEWLLSA-NH2
B8: Compound 41 (peptide)
peptide: H[Aib]QGTFTSDYSKYLDSK([isoGlu-Palmitoyl])AAHEFVEWLLSA-NH2
B9: Compound 37 (peptide)
peptide: H-H[Aib]QGTFTSDYSKYLDSKAAHDFVEWLLK([isoGlu-Palmitoyl])A-NH2
B10: Compound 42 (peptide)
peptide: H-H[Aib]QGTFTSDYSKYLDSK([isoGlu-Palmitoyl])AAEDFVEWLLSA-NH2
B11: Compound 40 (peptide)
peptide: H-H[Aib]QGTFTSDYSKYLDEK([isoGlu-Palmitoyl])AAHDFVEWLLSA-NH2

What follows are binders tested against T1, human glucagon-like peptide 1 receptor (GLP-1R) (human, UniProt P43220 24-463) (assay: cell-based or functional assay).
T1 sequence (P43220 24-463): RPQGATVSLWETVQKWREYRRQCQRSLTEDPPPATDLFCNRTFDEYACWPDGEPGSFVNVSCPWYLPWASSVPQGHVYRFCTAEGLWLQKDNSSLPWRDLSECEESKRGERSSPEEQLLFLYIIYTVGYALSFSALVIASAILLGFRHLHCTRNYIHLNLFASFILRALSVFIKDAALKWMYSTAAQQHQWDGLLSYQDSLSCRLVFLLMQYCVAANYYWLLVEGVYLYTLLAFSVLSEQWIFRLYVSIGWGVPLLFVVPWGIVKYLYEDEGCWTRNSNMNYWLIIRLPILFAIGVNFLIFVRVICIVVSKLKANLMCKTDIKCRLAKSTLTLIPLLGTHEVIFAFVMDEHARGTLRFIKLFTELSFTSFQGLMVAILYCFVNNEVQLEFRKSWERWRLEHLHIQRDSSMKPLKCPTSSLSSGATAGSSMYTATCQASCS

Binder | EC50 (nM) GLP-1R, cAMP formation
B1 | 0.15 nM
B2 | 0.12 nM
B3 | 0.57 nM
B4 | 0.11 nM
B5 | 0.09 nM

These binders were tested against T2, human glucagon receptor (Glucagon-R) (human, UniProt P47871 26-477) (assay: cell-based or functional assay).

Binder | EC50 (nM) GluR, cAMP formation
B1 | 0.63 nM
B2 | 0.17 nM
B3 | 0.22 nM
B4 | 0.16 nM
B5 | 0.1 nM

Target: T1, human glucagon-like peptide 1 receptor …
Assay: cell-based or functional assay
Remark: another data set of the same source

Binder | EC50 (nM) GLP-1R, cAMP formation
B6 | 0.082 nM
B7 | 0.16 nM
B8 | 0.13 nM
B9 | 0.207 nM
B10 | 0.03 nM
B11 | 0.2 nM

Target: T2, human glucagon receptor (Glucagon-R)
Assay: cell-based or functional assay
Remark: another data set of the same source

Binder | EC50 (nM) GluR, cAMP formation
B6 | 0.12 nM
B7 | 0.24 nM
B8 | 0.08 nM
B9 | 0.147 nM
B10 | 0.27 nM
B11 | 0.18 nM
